Data taken from the supplement of paper PMC12042874.
± gives the uncertainty stated by the source.

Assay: amyloid nucleation score (Sup35N fusion, yeast selection) (log enrichment); library NNK1; higher = more nucleation; inactive = no reads after selection
How it was run: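 Nucleation score: DiMSum log enrichment of output over input reads, centred on the mode score of non-aggregating sequences. Only sequences with at least 100 input reads were kept. Reads came from Illumina sequencing of plasmid inserts before and after 7 days of growth at 30°C without adenine and uracil, in psi-negative yeast expressing Sup35N fused to peptides of 20 random codons after 24 hours of induction with 100 μM copper sulfate.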

Substance | amyloid nucleation score
LNGTLSCNAISFFIMFA | 0.846 ± 0.44
VGIEFLYLPFVSSRWVVTKW | 0.277 ± 1.4
WFSYYLLFRYNDNLSRAERS | 0.456 ± 0.61
VPFSGSDNGGTYDCLDWNEG | -0.299 ± 0.63
QTSDTNWGVLFTVYFLCQDM | -0.059 ± 0.67
SVCKCKLNERIEKWNYRSIR | 0.227 ± 0.43
TRHFLSIVLLEL | 1.78 ± 0.28
AGKCGIQWACEM | 0.194 ± 0.69
TTLVQCQFIPTFCVIPMWLL | 5.58 ± 0.058
LFDSLEAVYRSYGKSWACYI | -1.63 ± 0.9
VTGHV | -0.019 ± 0.49
CWMTGWTYPVY | 3.85 ± 0.15
ALIYPILILYGV | 1.52 ± 0.85
MGGVMAVLFRIMLGVIF | inactive
FDSFKVRYN | -0.724 ± 0.7
SQIADHIRSPRNL | -1.37 ± 2.1
IVGSLYLELYSRR | 1.57 ± 0.18
SIFWSRTVLLMN | 5.97 ± 0.1
PLVCRGLLSRCGNPSGKCGR | -0.125 ± 1.7
GHRTWRLITAIDA | 0.088 ± 0.4
VLTTGTYFATVYIK | inactive
EIQSSRRKITISMPNRSIVV | 0.333 ± 0.25

Substance | amyloid nucleation score
LWKLLAAGVGNMCDD | -0.503 ± 0.38
ITPDVGSGTFEV | 0.022 ± 1.1
IAVFRYFDSYRPFTRVSVLF | inactive
YGNWFYIFFS | 6.471 ± 0.054
WHEMKY | 1.46 ± 0.13
VSSRITPS | 1.11 ± 0.39
YQDFAGDARFGEIRWYYPKS | 0.125 ± 0.41
GLRALEMSLSES | inactive
FIISRD | -0.028 ± 0.34
APRYHAVFLLII | -0.505 ± 0.79
SSGYSGSCVNINWC | 6.412 ± 0.045
GSKKYQIMSVSELKVQCCGS | 0.445 ± 0.34
CAFCI | -0.766 ± 1
GFNKSSSGFVSSNGDIDYWD | -1.68 ± 2.1
YFSLSVIREVCFFVPWKLRS | 0.14 ± 0.43
STCHRSSSTCWKGYVRGLVV | 0.004 ± 0.18
PNTLYSLTIIMSARLNSSLL | 0.371 ± 0.57
KYIRISVDGIRFKEWCEFGS | 0.777 ± 0.14
FCEHNVISYNESLRM | 0.352 ± 0.53
EVIRLDSIFLETGVRSCFQY | 0.041 ± 0.73
MSKKMQRPRVAAVGFERFGT | -0.174 ± 0.9
FSFVSECGLAGFYPRE | 0.35 ± 0.55

Substance | amyloid nucleation score
RDSQMMNT | 0.312 ± 0.37
MSRRWV | -1.01 ± 0.79
LVFANSHGFCGKSSLLRVGD | inactive
VLTNESRGYTIRLGSYSRFV | 2.4 ± 0.49
TVSIPKPILFCEFYFRYADM | -1.67 ± 0.73
NTCLH | 1.63 ± 0.43
FHVHSVLISE | -0.166 ± 0.84
RVSRLPFDECSFLLVTVEGI | 0.311 ± 0.49
GLGFTGWF | 0.708 ± 0.73
WCISTIGWRTDGCD | inactive
IFILIRYWHCITSSPDVGFG | -0.246 ± 0.61
LVKWGCQLSVEFVRFNTGFQ | 1.74 ± 0.094
KVAHCCSDMYSWRVGKMMSM | 0.024 ± 0.79
YLNTLRR | inactive
RVIFSGYWRAIFSLS | -0.383 ± 0.66
ITGPIEGGVTK | -0.118 ± 0.8
VAFLTKNCYEFDDTVRTCAV | -0.569 ± 0.42
STNVGRILMCVQLSLWKLN | 0.227 ± 0.29
GKYILYDQCSNTINSGKLSI | inactive
LMYKICTLVRRLHLSRYKNM | -1.27 ± 1.7
VNYPEDPTSKEIIRHSLGTG | -1.13 ± 2.4
HRNSCVPPGVAGIVTVCL | 0.363 ± 0.6

Substance | amyloid nucleation score
FPRHYCTYWG | -0.157 ± 0.36
IWYFLCICSLYRLEYHLLDC | -0.405 ± 0.25
MFGGGWDAKWPPIPCLKKVD | 0.308 ± 0.43
ARGTGGSKAAPNYLVYTGCR | 0.684 ± 0.48
TLFLVWILGVTKSRITGTPS | 0.325 ± 0.73
DVFRML | inactive
FRWRSSGGLVCFLDAVVVSV | -0.249 ± 0.38
RHDALLSGLYHCRCNQLNVC | 4.2 ± 0.074
NRALGMRGVIGPSVWYVVP | 0.534 ± 0.26
RIFLSVLLLMTVNVSVWPCH | -1.23 ± 1.5
RMGNLEKCKEPGVVNRWLGI | -0.507 ± 0.52
NDWRCSKGLLGFWRGGTRQA | 0.48 ± 0.28
FAYRL | 0.404 ± 0.44
DVSVT | inactive
YLNSFLYVMLFLVPDRSVTR | 6.18 ± 0.068
SMMKRVTAVVNVFYRFDIKA | inactive
IMVCN | -0.197 ± 0.42
MDKSTMVGIKCTMRVSRQMG | -0.158 ± 0.56
LLSFLRSAKIQTGR | 0.229 ± 0.38
QYPRFHVTGTGRLCGSRMSY | -0.382 ± 0.4
LMVYK | 0.575 ± 0.55
